Assay results published in publication PMC12549896, “Structural basis for antibiotic resistance by chloramphenicol acetyltransferase type A in Staphylococcus aureus” (Scientific Reports, 2025).

Tests used:
[1] = system: O=C(N[C@H](CO)[C@H](O)c1ccc([N+](=O)[O-])cc1)C(Cl)Cl; assay: purified protein; format: biochemical, Staphylococcus aureus; conditions: acetyl-CoA ([…] in assay) docked only: inter-protomer pocket; Ser140, Ser142, Tyr20, Thr25, catalytic His189
[2] = target: T1, saCAT1 (chloramphenicol acetyltransferase type A, S. aureus) (Staphylococcus aureus, UniProt P00485); assay: DTNB colorimetric acetyltransferase assay at […] nm, FA […], at […] chloramphenicol; format: biochemical
T1 construct: gene cat; residues 1-216; four amino acids (GSLE) remain at the N-terminus after thrombin cleavage; homotrimer

[3] = target: the molecule itself; assay: crystal structure; X-ray, space group P321, 1.8 Å; hanging drop at 16 °C, 0.01 M cobalt (II) chloride, 0.1 M sodium acetate pH 4.6, 1 M 1,6-hexanediol; trimer on the crystallographic 3-fold axis, interfaces analysed with PISA

Q: For “saCAT1 (chloramphenicol acetyltransferase type A, S. aureus) (Staphylococcus aureus)”, which Km [1] is on record?
A: The Km was 16.9 ± 3.0 µM.

Q: `CC(=O)O[C@H]1C[C@@]2(C)[C@@H](C[C@@H](O)[C@H]3[C@@]4(C)CC[C@@H](O)[C@@H](C)[C@@H]4CC[C@@]32C)/C1=C(\CCC=C(C)C)C(=O)O` [FA, fusidic acid] was tested. Which Ki [2] did it give?
A: The Ki was 83.7 µM.

B1: Staphylococcus aureus chloramphenicol acetyltransferase 1 (saCAT1) (enzyme)
chain: GSLEMNFNKIDLDNWKRKEIFNHYLNQQTTFSITTEIDISVLYRNIKQEGYKFYPAFIFLVTRVINSNTAFRTGYNSDGELGYWDKLEPLYTIFDGVSKTFSGIWTPVKNDFKEFYDLYLSDVEKYNGSGKLFPKTPIPENAFSLSIIPWTSFTGFNLNINNNSNYLLPIITAGKFINKGNSIYLPLSLQVHHSVCDGYHAGLFMNSIQELSDRPNDWLL
notes: four amino acids that remain at the N-terminus after thrombin cleavage of the His tag; chloramphenicol acetyltransferase encoded by the cat1 gene of Staphylococcus aureus plasmid pC194; all residues (1-216) modelled in the crystal structure; Cloned into the vector pFs91G (N-terminal 6xHis tag and thrombin site); Homotrimer in solution and in the crystal; one protomer in the asymmetric unit, the …
Q: How did the “stoichiometry N” value [3] turn out when B1 was run?
A: The value was 3.
